Patent US20030186281A1, “Modified tetracycline repressor protein compositions and methods of use” (priority 2001, published 2003)

Test system: tet operator sequence
Assay: β-galactosidase activity of a tetracycline-regulated promoter in transformed E. coli with revTetR, in the presence and absence of anhydrotetracycline (atc)
Format: cell-based, Escherichia coli
Settings: for β-Galactosidase Activity, Cultured Without ATC: RevTetR isolate cultured in the absence of anhydrotetracycline (ATC); for β-Galactosidase Activity, Cultured With ATC: RevTetR isolate cultured in the presence of anhydrotetracycline (ATC)
How it was run: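 TetR(BD) chimera mutants (TetR(B) residues 1–50, TetR(D) 51–208) expressed in E. coli regulating a tet operator-controlled lacZ. β-Galactosidase measured in Miller units at 28 °C and 37 °C with and without anhydrotetracycline; reported as percent of maximal expression without Tet repressor.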

| Molecule | β-Galactosidase Activity, Cultured Without ATC | β-Galactosidase Activity, Cultured With ATC |
| --- | --- | --- |
| TetRrevAtc4-28: revTetR(BD) V57V E58K L60V R62G (protein, Modified tetracycline repressor, revTetR(BD) V57V E58K L60V R62G) MSRLDKSKVINSALELLNEVGIEGLTTRKLAQKLGVEQPTLYWHVKNKRALLDALAVKIVAGHHDYSLPAAGESWQSFLRNNAMSFRRALLRYRDGAKVHLGTRPDEKQYDTVETQLRFMTENGFSLRDGLYAISAVSHFTLGAVLEQQEHTAALTDRPAAPDENLPPLLREALQIMDSDDGEQAFLHGLESLIRGFEVQLTALLQIV | 85.141 | 4.217 |
| TetRrevAtc4-40: revTetR(BD) A56P L60L A61G R62R (protein, Modified tetracycline repressor, revTetR(BD) A56P L60L A61G R62R) MSRLDKSKVINSALELLNEVGIEGLTTRKLAQKLGVEQPTLYWHVKNKRALLDALPVEILGRHHDYSLPAAGESWQSFLRNNAMSFRRALLRYRDGAKVHLGTRPDEKQYDTVETQLRFMTENGFSLRDGLYAISAVSHFTLGAVLEQQEHTAALTDRPAAPDENLPPLLREALQIMDSDDGEQAFLHGLESLIRGFEVQLTALLQIV | 56.743 | 14.428 |
| TetRrevAtc4-5: revTetR(BD) I59F A61S H64Q A97T (protein, Modified tetracycline repressor, revTetR(BD) I59F A61S H64Q A97T) MSRLDKSKVINSALELLNEVGIEGLTTRKLAQKLGVEQPTLYWHVKNKRALLDALAVEFLSRHQDYSLPAAGESWQSFLRNNAMSFRRALLRYRDGTKVHLGTRPDEKQYDTVETQLRFMTENGFSLRDGLYAISAVSHFTLGAVLEQQEHTAALTDRPAAPDENLPPLLREALQIMDSDDGEQAFLHGLESLIRGFEVQLTALLQIV | 98.272 | 12.552 |
| TetRrevAtc4-53: revTetR(BD) D53F L55M I59S H63Q (protein, Modified tetracycline repressor, revTetR(BD) D53F L55M I59S H63Q) MSRLDKSKVINSALELLNEVGIEGLTTRKLAQKLGVEQPTLYWHVKNKRALLFAMAVESLARQHDYSLPAAGESWQSFLRNNAMSFRRALLRYRDGAKVHLGTRPDEKQYDTVETQLRFMTENGFSLRDGLYAISAVSHFTLGAVLEQQEHTAALTDRPAAPDENLPPLLREALQIMDSDDGEQAFLHGLESLIRGFEVQLTALLQIV | 87.055 | 6.945 |
| TetRrevAtc4-6: revTetR(BD) D53Y L55L A56P R62L (protein, Modified tetracycline repressor, revTetR(BD) D53Y L55L A56P R62L) MSRLDKSKVINSALELLNEVGIEGLTTRKLAQKLGVEQPTLYWHVKNKRALLYALPVEILALHHDYSLPAAGESWQSFLRNNAMSFRRALLRYRDGAKVHLGTRPDEKQYDTVETQLRFMTENGFSLRDGLYAISAVSHFTLGAVLEQQEHTAALTDRPAAPDENLPPLLREALQIMDSDDGEQAFLHGLESLIRGFEVQLTALLQIV | 108.478 | 23.873 |
| TetRrevAtc4-61: revTetR(BD) L51L A56V I59H R62L (protein, Modified tetracycline repressor, revTetR(BD) L51L A56V I59H R62L) MSRLDKSKVINSALELLNEVGIEGLTTRKLAQKLGVEQPTLYWHVKNKRALLDALVVEHLALHHDYSLPAAGESWQSFLRNNAMSFRRALLRYRDGAKVHLGTRPDEKQYDTVETQLRFMTENGFSLRDGLYAISAVSHFTLGAVLEQQEHTAALTDRPAAPDENLPPLLREALQIMDSDDGEQAFLHGLESLIRGFEVQLTALLQIV | 88.785 | 23.831 |
| TetRrevAtc4-47: revTetR(BD) L51L E58A I59N H63Y (protein, Modified tetracycline repressor, revTetR(BD) L51L E58A I59N H63Y) MSRLDKSKVINSALELLNEVGIEGLTTRKLAQKLGVEQPTLYWHVKNKRALLDALAVANLERYNDYSLPAAGESWQSFLRNNAMSFRRALLRYRDGAKVHLGTRPDEKQYDTVETQLRFMTENGFSLRDGLYAISAVSHFTLGAVLEQQEHTAALTDRPAAPDENLPPLLREALQIMDSDDGEQAFLHGLESLIRGFEVQLTALLQIV | 83.987 | 13.969 |
| TetRrevAtc4-48: revTetR(BD) D53N A54S L55L A56P V57V A61A R62L (protein, Modified tetracycline repressor, revTetR(BD) D53N A54S L55L A56P V57V A61A R62L) MSRLDKSKVINSALELLNEVGIEGLTTRKLAQKLGVEQPTLYWHVKNKRALLNSLPPEILALHHDYSLPAAGESWQSFLRNNAMSFRRALLRYRDGAKVHLGTRPDEKQYDTVETQLRFMTENGFSLRDGLYAISAVSHFTLGAVLEQQEHTAALTDRPAAPDENLPPLLREALQIMDSDDGEQAFLHGLESLIRGFEVQLTALLQIV | 110.179 | 16.146 |
| TetRrevAtc4-70: revTetR(BD) D53A A61P (protein, Modified tetracycline repressor, revTetR(BD) D53A A61P) MSRLDKSKVINSALELLNEVGIEGLTTRKLAQKLGVEQPTLYWHVKNKRALLAALAVEILPRHHDYSLPAAGESWQSFLRNNAMSFRRALLRYRDGAKVHLGTRPDEKQYDTVETQLRFMTENGFSLRDGLYAISAVSHFTLGAVLEQQEHTAALTDRPAAPDENLPPLLREALQIMDSDDGEQAFLHGLESLIRGFEVQLTALLQIV | 16.119 | 11.125 |
| TetRrevAtc4-4: revTetR(BD) I59S R62S (protein, Modified tetracycline repressor, revTetR(BD) I59S R62S) MSRLDKSKVINSALELLNEVGIEGLTTRKLAQKLGVEQPTLYWHVKNKRALLDALAVESLASHHDYSLPAAGESWQSFLRNNAMSFRRALLRYRDGAKVHLGTRPDEKQYDTVETQLRFMTENGFSLRDGLYAISAVSHFTLGAVLEQQEHTAALTDRPAAPDENLPPLLREALQIMDSDDGEQAFLHGLESLIRGFEVQLTALLQIV | 70.5665 | 2.5363 |
| TetRrevAtc4-7: revTetR(BD) I59R L55L A61E H64N (protein, Modified tetracycline repressor, revTetR(BD) I59R L55L A61E H64N) MSRLDKSKVINSALELLNEVGIEGLTTRKLAQKLGVEQPTLYWHVKNKRALLDALAVERLERHNDYSLPAAGESWQSFLRNNAMSFRRALLRYRDGAKVHLGTRPDEKQYDTVETQLRFMTENGFSLRDGLYAISAVSHFTLGAVLEQQEHTAALTDRPAAPDENLPPLLREALQIMDSDDGEQAFLHGLESLIRGFEVQLTALLQIV | 84.416 | 27.649 |
| TetRrevAtc4-31: revTetR(BD) A50S D53Y A56G V57I H63Q (protein, Modified tetracycline repressor, revTetR(BD) A50S D53Y A56G V57I H63Q) MSRLDKSKVINSALELLNEVGIEGLTTRKLAQKLGVEQPTLYWHVKNKRSLLYGLGIEILARQHDYSLPAAGESWQSFLRNNAMSFRRALLRYRDGAKVHLGTRPDEKQYDTVETQLRFMTENGFSLRDGLYAISAVSHFTLGAVLEQQEHTAALTDRPAAPDENLPPLLREALQIMDSDDGEQAFLHGLESLIRGFEVQLTALLQIV | 65.039 | 2.181 |
| TetRrevAtc4-52: revTetR(BD) D53F A54T L55M I59S H63Q (protein, Modified tetracycline repressor, revTetR(BD) D53F A54T L55M I59S H63Q) MSRLDKSKVINSALELLNEVGIEGLTTRKLAQKLGVEQPTLYWHVKNKRALLFTMAVESLARQHDYSLPAAGESWQSFLRNNAMSFRRALLRYRDGAKVHLGTRPDEKQYDTVETQLRFMTENGFSLRDGLYAISAVSHFTLGAVLEQQEHTAALTDRPAAPDENLPPLLREALQIMDSDDGEQAFLHGLESLIRGFEVQLTALLQIV | 105.367 | 5.575 |
| TetRrevAtc4-43: revTetR(BD) L52V A56V V57L I59T A61S (protein, Modified tetracycline repressor, revTetR(BD) L52V A56V V57L I59T A61S) MSRLDKSKVINSALELLNEVGIEGLTTRKLAQKLGVEQPTLYWHVKNKRALVDALVLETLSRHHDYSLPAAGESWQSFLRNNAMSFRRALLRYRDGAKVHLGTRPDEKQYDTVETQLRFMTENGFSLRDGLYAISAVSHFTLGAVLEQQEHTAALTDRPAAPDENLPPLLREALQIMDSDDGEQAFLHGLESLIRGFEVQLTALLQIV | 99.61 | 13.878 |
| TetRrevAtc4-71: revTetR(BD) D53T L55M 56P A61S (protein, Modified tetracycline repressor, revTetR(BD) D53T L55M 56P A61S) MSRLDKSKVINSALELLNEVGIEGLTTRKLAQKLGVEQPTLYWHVKNKRALLTAMPVEILSRHHDYSLPAAGESWQSFLRNNAMSFRRALLRYRDGAKVHLGTRPDEKQYDTVETQLRFMTENGFSLRDGLYAISAVSHFTLGAVLEQQEHTAALTDRPAAPDENLPPLLREALQIMDSDDGEQAFLHGLESLIRGFEVQLTALLQIV | 70.197 | 7.372 |
| TetRrevAtc4-67: revTetR(BD) K48K D53Y A56G E58G (protein, Modified tetracycline repressor, revTetR(BD) K48K D53Y A56G E58G) MSRLDKSKVINSALELLNEVGIEGLTTRKLAQKLGVEQPTLYWHVKNKRALLYALGVGILARHHDYSLPAAGESWQSFLRNNAMSFRRALLRYRDGAKVHLGTRPDEKQYDTVETQLRFMTENGFSLRDGLYAISAVSHFTLGAVLEQQEHTAALTDRPAAPDENLPPLLREALQIMDSDDGEQAFLHGLESLIRGFEVQLTALLQIV | 61.815 | 12.616 |
